Laboratory results: article PMC6771166

Experiment: 5′-nucleotidase kit, transfected PLC/PRF/5 lysates
Settings: glycan lost; control: wild type

| Protein | enzymatic_activity, percent_of_wt |
| --- | --- |
| CD73 (ecto‐5′‐nucleotidase): N311Q (protein) parent chain: MCPRAARAPATLLLALGAVLWPAAGAWELTILHTNDVHSRLEQTSEDSSKCVNASRCMGGVARLFTKVQQIRRAEPNVLLLDAGDQYQGTIWFTVYKGAEVAHFMNALRYDAMALGNHEFDNGVEGLIEPLLKEAKFPILSANIKAKGPLASQISGLYLPYKVLPVGDEVVGIVGYTSKETPFLSNPGTNLVFEDEITALQPEVDKLKTLNVNKIIALGHSGFEMDKLIAQKVRGVDVVVGGHSNTFLYTGNPPSKEVPAGKYPFIVTSDDGRKVPVVQAYAFGKYLGYLKIEFDERGNVISSHGNPILLNSSIPEDPSIKADINKWRIKLDNYSTQELGKTIVYLDGSSQSCRFRECNMGNLICDAMINNNLRHTDEMFWNHVSMCILNGGGIRSPIDERNNGTITWENLAAVLPFGGTFDLVQLKGSTLKKAFEHSVHRYGQSTGEFLQVGGIHVVYDLSRKPGDRVVKLDVLCTKCRVPSYDPLKMDEVYKVILPNFLANGGDGFQMIKDELLRHDSGDQDINVVSTYISKMKVIYPAVEGRIKFSTGSHCHGSFSLIFLSLWAVIFVLYQ | decreases |
| CD73 (ecto‐5′‐nucleotidase): N333Q (protein) parent chain: MCPRAARAPATLLLALGAVLWPAAGAWELTILHTNDVHSRLEQTSEDSSKCVNASRCMGGVARLFTKVQQIRRAEPNVLLLDAGDQYQGTIWFTVYKGAEVAHFMNALRYDAMALGNHEFDNGVEGLIEPLLKEAKFPILSANIKAKGPLASQISGLYLPYKVLPVGDEVVGIVGYTSKETPFLSNPGTNLVFEDEITALQPEVDKLKTLNVNKIIALGHSGFEMDKLIAQKVRGVDVVVGGHSNTFLYTGNPPSKEVPAGKYPFIVTSDDGRKVPVVQAYAFGKYLGYLKIEFDERGNVISSHGNPILLNSSIPEDPSIKADINKWRIKLDNYSTQELGKTIVYLDGSSQSCRFRECNMGNLICDAMINNNLRHTDEMFWNHVSMCILNGGGIRSPIDERNNGTITWENLAAVLPFGGTFDLVQLKGSTLKKAFEHSVHRYGQSTGEFLQVGGIHVVYDLSRKPGDRVVKLDVLCTKCRVPSYDPLKMDEVYKVILPNFLANGGDGFQMIKDELLRHDSGDQDINVVSTYISKMKVIYPAVEGRIKFSTGSHCHGSFSLIFLSLWAVIFVLYQ | decreases |
